Results on three molecules are retold here after US20150017230A1 (ACADEMIA SINICA, published 2015).

Assay [1] concerns the target T1, EpCAM antigen immobilized on CM5 sensor chip (human, UniProt P16422 24-265, limits assumed).
T1 sequence: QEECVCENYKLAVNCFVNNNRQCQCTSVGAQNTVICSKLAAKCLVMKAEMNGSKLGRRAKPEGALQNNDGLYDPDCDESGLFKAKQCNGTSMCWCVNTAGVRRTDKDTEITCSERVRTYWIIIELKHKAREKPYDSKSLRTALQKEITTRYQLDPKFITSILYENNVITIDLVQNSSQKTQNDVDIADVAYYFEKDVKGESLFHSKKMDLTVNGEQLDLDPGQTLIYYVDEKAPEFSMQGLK
Description: SPR (BIAcore), EpCAM antigen immobilized on CM5 chip, mAb injected. The procedure: (§1) The affinity of murine and humanized antibodies was performed by surface plasmon resonance (BIAcore T100, Biacore, Inc). EpCAM antigen was immobilized on a Series S Sensor Chip CM5 (Biacore, Inc) and injected at a flow rate of 10 μl/min. The mAbs were diluted in HBS-EP⁺ buffer (Biacore, Inc) and injected at a flow rate of 50 μl/min for 1.5 min, and were allowed to dissociate over 5 min. […] The data were analyzed by the BIAevaluation software with a global fit 1:1 binding model.

The target in assay [2] is T1, EpCAM antigen immobilized on CM5 sensor …. Put plainly: SPR (BIAcore T100), EpCAM antigen immobilized on CM5 chip, mAb injected, 1:1 global fit. The procedure:
as §1

Assay [3] has as its target T2, human epithelial cell adhesion molecule (EpCAM), endogenous in SAS and other cancer cells (human, UniProt P16422 24-314).
T2 construct: also called TACSTD1; epithelial specific antigen (ESA)
T2 sequence: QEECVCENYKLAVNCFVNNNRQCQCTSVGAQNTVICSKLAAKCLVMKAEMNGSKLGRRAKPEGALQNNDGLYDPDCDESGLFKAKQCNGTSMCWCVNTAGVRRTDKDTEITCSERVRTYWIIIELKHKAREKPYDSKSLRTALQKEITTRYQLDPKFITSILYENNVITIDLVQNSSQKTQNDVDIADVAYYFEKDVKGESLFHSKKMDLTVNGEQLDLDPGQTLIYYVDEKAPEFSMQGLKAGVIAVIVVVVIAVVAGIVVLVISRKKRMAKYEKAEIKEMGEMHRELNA
Put plainly: cellular ELISA on SAS cells, OD490nm.

B1: EpAb4-1 (antibody, V domains shown)
VH: QIQLVQSGPELKKPGETVKISCKASGYTFTNYGMNWVKQAPGKGLKWMGWINTYTGEPTYGDDFKGRFAFSLETSASTAYLQINNLKNEDTATYFCARFGRSVDFWGQGTSVTVSS
VL: DIVMTQAAFSNPVTLGTSASISCRSSKSLLHSNGITYLYWYLQKPGQSPQLLIYHMSNLASGVPDRFSSSGSGTDFTLRISRVEAEDVGIYYCAQNLENPRTFGGGTKLEIK
Take B1: in assay [1], binding was put at a Kd of 1.23 pM; the koff (as a rule, a measure of how fast the partners let go of each other) worked out at 3.52e-07 s⁻¹; the on-rate (kon) – broadly, the second-order rate constant of association – stood at 286000 M⁻¹ s⁻¹.

B2: EpAb2-6 (antibody, V domains shown)
VH: EVQLVESGPELKKPGETVKISCKASGYTFTDYSMHWVKQAPGKGLKWMGWINTETGEPTFADDFKGRFAFSLETSARTTYLQINNLKNEDTATYFCARTAVYWGQGTSLTVSS
VL: DIQLTQSPSSLSASLGERVSLTCRASQEISVSLSWLQQKPDGTIKRLIYATSTLDSGVPKRFSGSRSGSDYSLTISSLESEDFADYYCLQYASYPWTFGGGTKLEIKR
notes: Mouse hybridoma monoclonal IgG; also called mEpAb2-6; murine EpAb2-6
In the case of B2, in assay [2], the Kd (commonly the concentration at which binding is half-saturated) is 349 pM. Further, the 50% effective concentration (EC50 (read off the curve)) (usually the concentration giving half of the maximal effect) in assay [3] was about 0.01 µg/mL. In assay [1], this molecule came in with a koff of 0.00014 s⁻¹ and an association rate constant (kon) of 401000 M⁻¹ s⁻¹.

B3: humanized EpAb2-6 (antibody, V domains shown)
VH: VKLQESGPELKKPGETVKISCKASGYTFTDYSMHWVKQAPGKGLKWMGWINTETGEPTYADDFKGRFAFSLETSASTAYLQINNLKNEDTATYFCARTAVYWGQGTTVTVSS
VL: DIQMTQSPSSLSASLGERVSLTCRASQEISVSLSWLQQEPDGTIKRLIYATSTLDSGVPKRFSGSRSGSDYSLTISSLESEDFVDYYCLQYASYPWTFGGGTKLEIKR
notes: CDRs of EpAb2-6 grafted onto a human IgG1 backbone; also called hEpAb2-6
The molecule B3 displayed a Kd in assay [2] of 677 pM. Besides, the “EC50 (read off the curve)” value in assay [3] was about 0.02 µg/mL. In assay [1], this molecule showed an off-rate (koff) of 0.000254 s⁻¹ and an on-rate constant (kon) of 376000 M⁻¹ s⁻¹.
